Data on two molecules can be found in US20110171215A1 (ISIS INNOVATION, published 2011).

In experiment [1] the target is T1, human PD-1 extracellular region with the transmembrane and intracellular regions of murine CD28, expressed on … (human; mouse, UniProt Q15116 25-170; P31041 151-218, limits assumed).
T1 construct: extracellular domain;domain: transmembrane and intracellular regions; also called human PD-1 transfectants
As to the kind of experiment: flow cytometry on transfected HEK 293T cells. As for the experimental part: (§1) Constructs encoding the human extracellular region of PD-1 with the transmembrane and intracellular regions of murine CD28 were cloned into the bi-cistronic mammalian expression vector pGFP2-n2 from BioSignal Packard Ltd, which also encodes GFP. Mutant constructs varying by one amino acid were prepared using the “drastic” mutagenesis approach (Davis el al. Proc Natl Acad Sci USA. 95, 5490-4 (1998)). Plasmids (2 μg/well) were transfected into HEK-293T cells in 6 well plates using Genejuice transfection reagent (Novagen; 6 μl/well). Mock and no-transfection controls were included with each experiment. Cells were harvested at 18-24 hours and stained with anti-PD1 antibodies or isotype controls at 10 μg/ml in PBS-azide for 1 h at 4° C. Cells were washed with PBS-Azide, pelleted at 1500 rpm/5 min and primary antibodies were labelled with Alexa647-conjugated donkey anti-mouse IgG (5 μg/ml) in PBS-Azide for 30 min at 4° C. Cells were washed as above and resuspended in 200 μl PBS-Azide before being analysed at the flow cytometer. Propidium iodide (5 μg/ml) was added immediately prior to analysis to identify dead cells. GFP-positive (transfected) viable cells were gated and analysed for binding of anti-PD1 antibodies. […]
Background: In flow cytometry, cells or beads pass a laser one at a time.

The target of experiment [2] is T2, human PD-1 extracellular region / murine CD28 chimera, mutant R118D, on HEK-293T cells (human; mouse, UniProt Q15116 25-170; P31041 151-218, R118D).
T2 construct: extracellular domain;domain: transmembrane and intracellular regions; Single-residue 'drastic' mutant of m4
As to the kind of experiment: flow cytometry on transfected HEK-293T cells. As for the experimental part:
as §1

In experiment [3] the target is T3, human PD-1 extracellular region / murine CD28 chimera, mutant L16R, on HEK-293T cells (human; mouse, UniProt Q15116 25-170; P31041 151-218, L16R).
T3 construct: extracellular domain;domain: transmembrane and intracellular regions; Single-residue 'drastic' mutant of m4; constructs elsewhere are counted on the mature polypeptide
As to the kind of experiment: flow cytometry on transfected HEK-293T cells. As to the method:
as §1

T2 sequence (Q15116 other isoform, or with tags, fused parts or gaps R118D | R118D R118D): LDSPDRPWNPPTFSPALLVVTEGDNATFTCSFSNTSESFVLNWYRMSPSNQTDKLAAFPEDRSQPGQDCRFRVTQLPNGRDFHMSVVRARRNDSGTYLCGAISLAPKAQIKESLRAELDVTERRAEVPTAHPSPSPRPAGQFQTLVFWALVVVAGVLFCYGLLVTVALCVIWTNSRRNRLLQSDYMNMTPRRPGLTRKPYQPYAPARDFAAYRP
T1 sequence (Q15116 other isoform, or with tags, fused parts or gaps limits assumed, change not shown): as the sequence (Q15116 other isoform, or with tags, fused parts or gaps R118D | R118D R118D) above, with D119R counted along it
T3 sequence (Q15116 other isoform, or with tags, fused parts or gaps L16R | L16R L16R): as the sequence (Q15116 other isoform, or with tags, fused parts or gaps R118D | R118D R118D) above, with L17R, D119R counted along it

B1: Clone 2 anti-PD-1 antibody (antibody, V domains shown)
VH: QVQLQQPGAELVKPGASVKLSCKASGYTFTTYYLYWVRQRPGQGLEWIGGINPSNGGTNFNEKFKSKATLTVDKSSSTAYMQLNSLTSEDSAVYYCTRRDYRYDRGFDYWGQGTSVTV
VL: DIVLTQSPASLAVSLGQRATISCRASKSVSTSGFNYIHWYQQKPGQPPKLLIYLASNLESGVPARFSGSGSGTDFTLNIHPVEDEDAATYYCQHSRELPLTFGAGTKLEIK
notes: The printed VH ends at ...TV
With B1, the binding result in experiment [1] is reported as “binds”.

B2: Clone 19 anti-PD-1 antibody (antibody, IgG1, V domains shown)
VH: QVQLQQSGAELVKPGASVKMSCKAFGYTFTTYPIEWMKQNHGKSLEWIGNFHPYNDDTKYNEKFKGKAKLTVEKSSTTVYLELSRLTSDDSAVYYCARENYGSHGGFVYWGQGTLVTV
VL: ENVLTQSPAIMSASPGEKVTMTCRASSSVISSYLHWYQQKSGASPKLWIYSTSNLASGVPDRFSGSGSGTSYSLTISSVEAEDAATYYCQQYNGYPLTFGAGTKLEIK
notes: The printed VH ends at ...TV
For the molecule B2, the binding result in experiment [2] and in experiment [3] was “no binding (tested: 10 µg/ml)” each time.
